The target in test [1] is human neonatal Fc receptor (FcRn) (human) (UniProt P55899). Nature of the test: BLI; Octet RED384; receptors loaded on HIS1K or SAX biosensors and probed into mAbs in a 2-fold dilution series (20, 10, 5, 2.5, 1.25 μg/mL); pH 6.0; 1:1 model; apparent. On the technique in general: In BLI a coated tip is dipped into the sample, and binding shifts an interference pattern.
For test [2], the target named is rhesus neonatal Fc receptor (FcRn) (rhesus) (UniProt Q6V7J5). Described as above.
The target of test [3] is human Fc gamma receptor IIIB, polymorphism NA1 (human) (UniProt O75015). The experiment in a line: BLI; Octet RED384; receptors loaded on HIS1K or SAX biosensors, probed into mAbs in a dilution series (2000, 100, 50, 25, 12.5 ug/mL [sic]); pH 7.4; 1:1 model; apparent affinity.
Sequence of human Fc gamma receptor IIIB, polymorphism NA1 (human) (O75015 17-233): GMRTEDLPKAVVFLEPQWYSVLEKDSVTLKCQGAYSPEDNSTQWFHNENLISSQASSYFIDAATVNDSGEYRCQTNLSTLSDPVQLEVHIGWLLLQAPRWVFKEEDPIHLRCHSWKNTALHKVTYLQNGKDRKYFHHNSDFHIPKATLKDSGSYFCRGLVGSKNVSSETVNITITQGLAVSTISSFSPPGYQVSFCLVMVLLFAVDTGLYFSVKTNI
Test [4] deals with human Fc gamma receptor IIIA, polymorphism V176 (human) (UniProt P08637). The test is described as above.
Sequence of human Fc gamma receptor IIIA, polymorphism V176 (human) (P08637 17-208 F176V): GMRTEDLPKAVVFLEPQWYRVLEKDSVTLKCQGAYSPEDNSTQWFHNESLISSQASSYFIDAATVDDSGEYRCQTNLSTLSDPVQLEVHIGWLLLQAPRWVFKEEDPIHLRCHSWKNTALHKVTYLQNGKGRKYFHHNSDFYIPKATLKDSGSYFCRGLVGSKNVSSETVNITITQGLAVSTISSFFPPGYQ
In test [5] the target is human Fc gamma receptor I (FcγRI) (human) (UniProt P12314). Described as above.
Sequence of human Fc gamma receptor I (FcγRI) (human) (P12314 16-292): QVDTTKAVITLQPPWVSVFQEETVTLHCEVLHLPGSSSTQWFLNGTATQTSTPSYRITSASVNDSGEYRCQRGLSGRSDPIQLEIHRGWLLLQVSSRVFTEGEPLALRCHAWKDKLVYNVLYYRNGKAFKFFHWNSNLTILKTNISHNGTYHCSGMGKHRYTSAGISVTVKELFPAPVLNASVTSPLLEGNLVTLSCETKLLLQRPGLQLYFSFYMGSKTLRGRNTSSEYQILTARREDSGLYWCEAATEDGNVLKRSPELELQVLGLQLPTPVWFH
For test [6], the target named is human Fc gamma receptor IIIB, polymorphism NA2 (human) (UniProt O75015). Described as above.
Test [7] concerns the target human Fc gamma receptor IIA, polymorphism R167 (human) (UniProt P12318). Described as above.
Test [8] addresses human Fc gamma receptor IIA, polymorphism H167 (human) (UniProt P12318). Described as above.
Test [9] addresses human Fc gamma receptor IIB (FcγRIIB) (human) (UniProt P31994). Described as above.
In test [10] the target is human neonatal Fc receptor (FcRn) (human) (UniProt P55899). The experiment in a line: BLI; Octet RED384; receptors loaded on HIS1K or SAX biosensors and probed into mAbs in a dilution series (2000, 100, 50, 25, 12.5 μg/mL as printed); pH 7.4; 1:1 model; apparent.
The target of test [11] is rhesus neonatal Fc receptor (FcRn) (rhesus) (UniProt Q6V7J5). The description is as above.
For test [12], the target named is human Fc gamma receptor IIIA, polymorphism F176 (human) (UniProt P08637). Nature of the test: BLI; Octet RED384; receptors loaded on HIS1K or SAX biosensors, probed into mAbs in a dilution series (2000, 100, 50, 25, 12.5 ug/mL [sic]); pH 7.4; 1:1 model; apparent affinity.
Sequence of human Fc gamma receptor IIIA, polymorphism F176 (human) (P08637 17-208): as the sequence (P08637 17-208 F176V) above, with V160F counted along it

Sequence of human neonatal Fc receptor (FcRn) (human) (P55899 24-297, chain 1 of 2): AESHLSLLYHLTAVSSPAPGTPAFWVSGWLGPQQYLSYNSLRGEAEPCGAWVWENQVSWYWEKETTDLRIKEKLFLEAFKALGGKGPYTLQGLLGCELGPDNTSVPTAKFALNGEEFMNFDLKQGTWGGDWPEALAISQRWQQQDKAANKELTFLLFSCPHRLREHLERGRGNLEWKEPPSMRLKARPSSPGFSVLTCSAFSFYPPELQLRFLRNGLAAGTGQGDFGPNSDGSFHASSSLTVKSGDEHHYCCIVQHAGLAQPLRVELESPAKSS
Sequence of human neonatal Fc receptor (FcRn) (human) (P61769 21-119, chain 2 of 2, further chain): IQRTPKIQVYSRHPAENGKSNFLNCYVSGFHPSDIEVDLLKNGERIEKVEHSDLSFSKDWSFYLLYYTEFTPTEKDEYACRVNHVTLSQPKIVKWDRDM
Sequence of human Fc gamma receptor IIA, polymorphism R167 (human) (P12318 34-217 H167R): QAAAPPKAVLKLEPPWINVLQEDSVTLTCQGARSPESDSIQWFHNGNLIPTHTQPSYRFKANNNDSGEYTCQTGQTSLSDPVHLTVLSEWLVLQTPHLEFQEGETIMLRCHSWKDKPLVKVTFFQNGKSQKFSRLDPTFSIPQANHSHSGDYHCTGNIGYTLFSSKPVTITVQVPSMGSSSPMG
Sequence of human Fc gamma receptor IIB (FcγRIIB) (human) (P31994 43-217): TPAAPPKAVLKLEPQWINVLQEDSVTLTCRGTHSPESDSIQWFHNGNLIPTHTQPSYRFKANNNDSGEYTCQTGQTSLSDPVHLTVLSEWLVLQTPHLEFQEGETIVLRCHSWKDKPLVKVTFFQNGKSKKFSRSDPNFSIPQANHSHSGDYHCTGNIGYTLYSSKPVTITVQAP
Sequence of human Fc gamma receptor IIA, polymorphism H167 (human) (P12318 34-217): as the sequence (P12318 34-217 H167R) above, with R134H counted along it

Consider CIS43 (antibody), for which the Kd in test [1] is 54.2 nM; in test [2] it was 326 nM.
In general, koff refers to a measure of how fast the partners let go of each other. The term kon denotes a measure of how fast the partners come together. In the case of “CIS43LS (CIS43 with the LS mutations M451L/N457S in the CH3 domain of the Fc region) (antibody)”, the Kd in test [3] came out at 1190 nM; in test [4] it was 550 nM; in test [5] it was 15.8 nM; in test [6], 854 nM; in test [7], 764 nM; in [8] it was 2490 nM. Further, in [9], the Kd came to 3800 nM. Besides, the koff in [3] came to 0.356 s⁻¹; in [4] it was 0.0433 s⁻¹; in test [5], 0.00308 s⁻¹; in test [6] it was 0.25 s⁻¹; in [7], 0.349 s⁻¹; in test [8], 0.598 s⁻¹. Moreover, the off-rate constant (koff) in [9] stood at 0.874 s⁻¹. Further, the kon in test [3] is 300000 M⁻¹ s⁻¹; in test [4] it was 78700 M⁻¹ s⁻¹; in [5], 194000 M⁻¹ s⁻¹; in test [6] it was 293000 M⁻¹ s⁻¹; in [7], 457000 M⁻¹ s⁻¹; in test [8], 240000 M⁻¹ s⁻¹. Further, the on-rate constant (kon) in test [9] is 230000 M⁻¹ s⁻¹.
Turning to CIS43LS (antibody), the Kd in test [10] was 234 nM; in [11], 262 nM; in [1], 6.2 nM; in [2], 25.1 nM.
Regarding CIS43 human monoclonal antibody, the Kd in test [3] was determined as 1030 nM; in test [4], 652 nM; in [12] it was 1740 nM; in [5], 14.8 nM; in test [6], 1280 nM; in test [7] it was 1480 nM. Further, the Kd in [8] was 3840 nM; in test [9] it was 3130 nM. Besides, the off-rate (koff) in test [3] was determined as 0.442 s⁻¹; in test [4] it was 0.105 s⁻¹; in [12], 0.273 s⁻¹; in test [5] it was 0.00278 s⁻¹; in test [6] it was 0.419 s⁻¹; in test [7], 0.514 s⁻¹. Also, the koff in test [8] worked out at 0.676 s⁻¹; in test [9], 0.812 s⁻¹. Further, the kon was 430000 M⁻¹ s⁻¹ in [3]; 161000 M⁻¹ s⁻¹ in [4]; 157000 M⁻¹ s⁻¹ in test [12]; 187000 M⁻¹ s⁻¹ in test [5]; 327000 M⁻¹ s⁻¹ in test [6]; 348000 M⁻¹ s⁻¹ in [7]. Further, the kon came to 176000 M⁻¹ s⁻¹ in test [8] and 259000 M⁻¹ s⁻¹ in test [9].

(Values after paper PMC7934869.)
